Measured values taken from patent US20240288416.

Test system: green fluorescent protein (GFP) carrying an ssrA tag at the C-terminus

unfoldase ClpX
controlled translocation through the opened ClpP-nanopore (ionic current traces, ATP present): ClpX-assisted transport of GFP across opened ClpP-nanopore in the presence of ATP
